Data: US20240000938A1

Columns and labels:
[1] = molecular target: HLA-A*02 on cells (human); assay: cell-based or functional assay
[2] = molecular target: streptavidin-PE-HLA-A*02-pMHC or streptavidin-APC-HLA-A*02-pMHC tetramer (human); assay: flow cytometry; HLA-A*02 positive donor primary T cells with CAR and A*02 blocker, before B2M knockout
[3] = molecular target: streptavidin-PE-HLA-A*02-pMHC or streptavidin-APC-HLA-A*02-pMHC tetramer (human); assay: flow cytometry; HLA-A*02 positive donor primary T cells with CAR and A*02 blocker, after B2M knockout with sgRNA B2M-3
[4] = molecular target: streptavidin-PE-HLA-A*02-pMHC or streptavidin-APC-HLA-A*02-pMHC tetramer (human); assay: flow cytometry; HLA-A*02 positive donor primary T cells with CAR and A*02 blocker, after B2M knockout with sgRNA B2M-6

- inhibition of IFNγ induction in primary T cells (HeLa cells) [1]: > 5 fold
- inhibition of IFNγ induction in primary T cells (SiHa cells) [1]: > 10 fold
- suppression of pan HLA scFv CAR signal (T2 cells) [1]: < 25 fold
- % of cells negative for the A*02 blocker probe [2]: > 85%
- % of the cell population stained with the A*02 blocker probe [2]: 14.8%
- % of the cell population stained with the A*02 blocker probe [3]: 40.7%
- % of the cell population stained with the A*02 blocker probe [4]: 44%
Substance: HLA-A*02 PA2.1 ScFv LIR1 inhibitor (C1765) (from UniProt Q8NHL6 398-650)
